# Experimental data from the supplement of paper PMC5998384.
# Legend:
# [1] = tested on: HeLa Kyoto; assay: melting temperature (median over replicates), in situ; higher = more thermally stable
# [2] = tested on: HeLa Kyoto; assay: solubility in G1/S (NP-40 vs SDS abundance) (log2 ratio); higher = more soluble; settings: cell cycle stage: G1/S
# [3] = tested on: HeLa Kyoto; assay: solubility change mitosis vs G1/S (difference of NP-40 vs SDS log2 ratios) (log2 ratio difference); higher = more soluble in mitosis
# [4] = tested on: HeLa Kyoto; assay: thermal stability score vs G1/S (z-score of summed log2 fold changes over temperatures); higher = more thermally stable than in G1/S
# [5] = cell cycle stage: early G1 (4.5 h after nocodazole release)
# 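For melting temperature (median over replicates), in situ in this document: HeLa Kyoto cells synchronized by double thymidine or nocodazole block, proteins quantified by TMT10plex mass spectrometry, three independent biological replicates.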
# 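For solubility change mitosis vs G1/S (difference of NP-40 vs SDS log2 ratios) in this document: synchronized HeLa Kyoto cells (double thymidine block for G1/S, nocodazole release for mitosis), protein amounts in NP-40 versus SDS lysates quantified by mass spectrometry, three biological replicates.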
# 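For solubility in G1/S (NP-40 vs SDS abundance) in this document: HeLa Kyoto cells arrested at G1/S by double thymidine block, proteins quantified by TMT10plex mass spectrometry in mild NP-40 versus SDS extracts, three biological replicates.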
# 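For thermal stability score vs G1/S (z-score of summed log2 fold changes over temperatures) in this document: synchronized HeLa Kyoto cells, proteins quantified by TMT10plex mass spectrometry, three biological replicates, mitosis taken 0.5 h after nocodazole release, G1/S directly after double thymidine block.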
substance,measurement,setting,value
MAAPRVFPLSCAVQQYAWGKMGSNSEVARLLASSDPLAQIAEDKPYAELWMGTHPRGDAKILDNRISQKTLSQWIAENQDSLGSKVKDTFNGNLPFLFKVLSVETPLSIQAHPNKELAEKLHLQAPQHYPDANHKPEMAIALTPFQGLCGFRPVEEIVTFLKKVPEFQFLIGDEAATHLKQTMSHDSQAVASSLQSCFSHLMKSEKKVVVEQLNLLVKRISQQAAAGNNMEDIFGELLLQLHQQYPGDIGCFAIYFLNLLTLKPGEAMFLEANVPHAYLKGDCVECMACSDNTVRAGLTPKFIDVPTLCEMLSYTPSSSKDRLFLPTRSQEDPYLSIYDPPVPDFTIMKTEVPGSVTEYKVLALDSASILLMVQGTVIASTPTTQTPIPLQRGGVLFIGANESVSLKLTEPKDLLIFRACCLL [MPI],melting temperature,[1]; cell cycle stage: G1/S,50.7 °C
same,melting temperature,[1]; cell cycle stage: mitosis,50.4 °C
same,solubility in G1/S (log2),[2],0.389
same,solubility change mitosis (log2),[3],-0.154
same,thermal stability score,[4]; [5],-0.708
same,thermal stability score,[4]; cell cycle stage: mitosis,-0.365
RHOT2,melting temperature,[1]; cell cycle stage: G1/S,50.7 °C
same,melting temperature,[1]; cell cycle stage: mitosis,50.5 °C
same,solubility in G1/S (log2),[2],-0.00866
same,solubility change mitosis (log2),[3],-0.0417
same,thermal stability score,[4]; [5],-0.0452
same,thermal stability score,[4]; cell cycle stage: mitosis,-0.352
MKARRNKKQIPSFRKLIKTSKVKLENKLKNKQFKQQSTLKKYRKEQRKLRQAVKDAVSKKPIPLENPKEKRPGKRIEREEEEEEEALPLDMMDEDDLQLMKDLGQRVSFLTRDLSSSEPVHAKKRKHERIIDKYEKIPRTLQTAPEKELIHLLPIKDKSGIIPQTREKPVTDSNKDEEDQEEERELEEEIIEDPIQELTIEEHLIERKKKLQEKKMHIAALASAILSDPENNIKKLKELRSMLMEQDPDVAVTVRKLVIVSLMELFKDITPSYKIRPLTEAEKSTKTRKETQKLREFEEGLVSQYKFYLENLEQMVKDWKQRKLKKSNVVSLKAYKGLAEVAVKSLCELLVALPHFNFHNNIIVLIVPLMNDMSKLISEMCCEAVKKLFKQDKLGQASLGVIKVISGFVKGRNYEVRPEMLKTFLCLRIKEVEVKKDTEDINKPKKFMTFKEKRKSLSRMQRKWKKAEEKLERELREAEASESTEKKLKLHTETLNIVFVTYFRILKKAQRSPLLPAVLEGLAKFAHLINVEFFDDLLVVLHTLIESGDLSYQESLHCVQTAFHILSGQGDVLNIDPLKFYTHLYKTLFKLHAGATNEGVEIVLQCLDVMLTKRRKQVSQQRALAFIKRLCTLALHVLPNSSIGILATTRILMHTFPKTDLLLDSESQGSGVFLPELDEPEYCNAQNTALWELHALRRHYHPIVQRFAAHLIAGAPSEGSGALKPELSRRSATELFEAYSMAEMTFNPPVESSNPKIKGKFLQGDSFLNEDLNQLIKRYSSEVATESPLDFTKYLKTSLH [NOC3L],melting temperature,[1]; cell cycle stage: G1/S,49.2 °C
same,melting temperature,[1]; cell cycle stage: mitosis,50 °C
same,solubility in G1/S (log2),[2],-1.96
same,solubility change mitosis (log2),[3],1.29
same,thermal stability score,[4]; [5],0.294
same,thermal stability score,[4]; cell cycle stage: mitosis,0.855
MKFRAKIVDGACLNHFTRISNMIAKLAKTCTLRISPDKLNFILCDKLANGGVSMWCELEQENFFNEFQMEGVSAENNEIYLELTSENLSRALKTAQNARALKIKLTNKHFPCLTVSVELLSMSSSSRIVTHDIPIKVIPRKLWKDLQEPVVPDPDVSIYLPVLKTMKSVVEKMKNISNHLVIEANLDGELNLKIETELVCVTTHFKDLGNPPLASESTHEDRNVEHMAEVHIDIRKLLQFLAGQQVNPTKALCNIVNNKMVHFDLLHEDVSLQYFIPALS [HUS1],melting temperature,[1]; cell cycle stage: G1/S,51.8 °C
same,melting temperature,[1]; cell cycle stage: mitosis,51.9 °C
same,solubility in G1/S (log2),[2],0.0659
same,solubility change mitosis (log2),[3],-0.083
same,thermal stability score,[4]; [5],1.48
same,thermal stability score,[4]; cell cycle stage: mitosis,1.19
MLRAPGCLLRTSVAPAAALAAALLSSLARCSLLEPRDPVASSLSPYFGTKTRYEDVNPVLLSGPEAPWRDPELLEGTCTPVQLVALIRHGTRYPTVKQIRKLRQLHGLLQARGSRDGGASSTGSRDLGAALADWPLWYADWMDGQLVEKGRQDMRQLALRLASLFPALFSRENYGRLRLITSSKHRCMDSSAAFLQGLWQHYHPGLPPPDVADMEFGPPTVNDKLMRFFDHCEKFLTEVEKNATALYHVEAFKTGPEMQNILKKVAATLQVPVNDLNADLIQVAFFTCSFDLAIKGVKSPWCDVFDIDDAKVLEYLNDLKQYWKRGYGYTINSRSSCTLFQDIFQHLDKAVEQKQRSQPISSPVILQFGHAETLLPLLSLMGYFKDKEPLTAYNYKKQMHRKFRSGLIVPYASNLIFVLYHCENAKTPKEQFRVQMLLNEKVLPLAYSQETVSFYEDLKNHYKDILQSCQTSEECELARANSTSDEL [MINPP1],melting temperature,[1]; cell cycle stage: G1/S,54.4 °C
same,melting temperature,[1]; cell cycle stage: mitosis,55.7 °C
same,solubility in G1/S (log2),[2],0.459
same,solubility change mitosis (log2),[3],-0.069
same,thermal stability score,[4]; [5],4.83
same,thermal stability score,[4]; cell cycle stage: mitosis,4.74
MKDSENKGASSPDMEPSYGGGLFDMVKGGAGRLFSNLKDNLKDTLKDTSSRVIQSVTSYTKGDLDFTYVTSRIIVMSFPLDNVDIGFRNQVDDIRSFLDSRHLDHYTVYNLSPKSYRTAKFHSRVSECSWPIRQAPSLHNLFAVCRNMYNWLLQNPKNVCVVHCLDGRAASSILVGAMFIFCNLYSTPGPAIRLLYAKRPGIGLSPSHRRYLGYMCDLLADKPYRPHFKPLTIKSITVSPIPFFNKQRNGCRPYCDVLIGETKIYSTCTDFERMKEYRVQDGKIFIPLNITVQGDVVVSMYHLRSTIGSRLQAKVTNTQIFQLQFHTGFIPLDTTVLKFTKPELDACDVPEKYPQLFQVTLDVELQPHDKVIDLTPPWEHYCTKDVNPSILFSSHQEHQDTLALGGQAPIDIPPDNPRHYGQSGFFASLCWQDQKSEKSFCEEDHAALVNQESEQSDDELLTLSSPHGNANGDKPHGVKKPSKKQQEPAAPPPPEDVDLLGLEGSAMSNSFSPPAAPPTNSELLSDLFGGGGAAGPTQAGQSGVEDVFHPSGPASTQSTPRRSATSTSASPTLRVGEGATFDPFGAPSKPSGQDLLGSFLNTSSASSDPFLQPTRSPSPTVHASSTPAVNIQPDVSGGWDWHAKPGGFGMGSKSAATSPTGSSHGTPTHQSKPQTLDPFADLGTLGSSSFASKPTTPTGLGGGFPPLSSPQKASPQPMGGGWQQGGAYNWQQPQPKPQPSMPHSSPQNRPNYNVSFSAMPGGQNERGKGSSNLEGKQKAADFEDLLSGQGFNAHKDKKGPRTIAEMRKEEMAKEMDPEKLKILEWIEGKERNIRALLSTMHTVLWAGETKWKPVGMADLVTPEQVKKVYRKAVLVVHPDKATGQPYEQYAKMIFMELNDAWSEFENQGQKPLY [DNAJC6],melting temperature,[1]; cell cycle stage: G1/S,51.6 °C
same,melting temperature,[1]; cell cycle stage: mitosis,51.7 °C
same,solubility in G1/S (log2),[2],0.0466
same,solubility change mitosis (log2),[3],-0.112
same,thermal stability score,[4]; [5],-0.0779
same,thermal stability score,[4]; cell cycle stage: mitosis,-0.888
FAM91A1,melting temperature,[1]; cell cycle stage: G1/S,51.9 °C
same,melting temperature,[1]; cell cycle stage: mitosis,51.3 °C
same,solubility in G1/S (log2),[2],-0.0537
same,solubility change mitosis (log2),[3],-0.101
same,thermal stability score,[4]; [5],-0.197
same,thermal stability score,[4]; cell cycle stage: mitosis,-1.55
MEPEPEPAAVEVPAGRVLSARELFAARSRSQKLPQRSHGPKDFLPDGSAAQAERLRRCREELWQLLAEQRVERLGSLVAAEWRPEEGFVELKSPAGKFWQTMGFSEQGRQRLHPEEALYLLECGSIHLFHQDLPLSIQEAYQLLLTDHTVTFLQYQVFSHLKRLGYVVRRFQPSSVLSPYERQLNLDASVQHLEDGDGKRKRSSSSPRSINKKAKALDNSLQPKSLAASSPPPCSQPSQCPEEKPQESSPMKGPGGPFQLLGSLGPSPGPAREGVGCSWESGRAENGVTGAGKRRWNFEQISFPNMASDSRHTLLRAPAPELLPANVAGRETDAESWCQKLNQRKEKLSRREREHHAEAAQFQEDVNADPEVQRCSSWREYKELLQRRQVQRSQRRAPHLWGQPVTPLLSPGQASSPAVVLQHISVLQTTHLPDGGARLLEKSGGLEIIFDVYQADAVATFRKNNPGKPYARMCISGFDEPVPDLCSLKRLSYQSGDVPLIFALVDHGDISFYSFRDFTLPQDVGH [TSEN54],melting temperature,[1]; cell cycle stage: G1/S,48.8 °C
same,melting temperature,[1]; cell cycle stage: mitosis,50 °C
same,solubility in G1/S (log2),[2],0.322
same,solubility change mitosis (log2),[3],-0.153
same,thermal stability score,[4]; [5],0.317
same,thermal stability score,[4]; cell cycle stage: mitosis,0.466
MSRLRALLGLGLLVAGSRVPRIKSQTIACRSGPTWWGPQRLNSGGRWDSEVMASTVVKYLSQEEAQAVDQELFNEYQFSVDQLMELAGLSCATAIAKAYPPTSMSRSPPTVLVICGPGNNGGDGLVCARHLKLFGYEPTIYYPKRPNKPLFTALVTQCQKMDIPFLGEMPAEPMTIDELYELVVDAIFGFSFKGDVREPFHSILSVLKGLTVPIASIDIPSGWDVEKGNAGGIQPDLLISLTAPKKSATQFTGRYHYLGGRFVPPALEKKYQLNLPPYPDTECVYRLQ [APOA1BP],melting temperature,[1]; cell cycle stage: G1/S,56.4 °C
same,melting temperature,[1]; cell cycle stage: mitosis,55.3 °C
same,solubility in G1/S (log2),[2],0.462
same,solubility change mitosis (log2),[3],0.417
same,thermal stability score,[4]; [5],-2.06
same,thermal stability score,[4]; cell cycle stage: mitosis,-3.77
